These results are taken from paper PMC6695453, “Peptide translocation by the lysosomal ABC transporter TAPL is regulated by coupling efficiency and activation energy” (Scientific Reports, 2019).

For orientation: Ki means a dissociation constant, usually derived from enzyme kinetics or from competition with a known ligand. Lower therefore signals a stronger hold on the target. As a reminder, the Kd is the concentration at which binding is half-saturated. The low end stands for tighter binding, the high end for weaker binding.

Side chains are listed from the residue outwards. Ends that are not written are not given here.

One test deals with Pdr5. The settings on record: cited from earlier work. The text has this:
Both nucleotides show the same Km and kcat values in respect of NTP hydrolysis. […] NTP dependent transport was found also for other ABC transporters. […] The full-length ABC transport Pdr5 from yeast hydrolyzes GTP and even UTP, but ...

For test [1], the target named is T1, coreTAPL (core complex of the transporter associated with antigen processing-like, ABCB9) fused C-terminally … (human, UniProt Q9NP78 143-766).
T1 construct: TAPL (ABCB9), human, core complex without TMD0, amino acids 143-766 of UniProt Q9NP78; source: reconstituted into proteoliposomes for transport and ATPase assays; not shown: mVenus, C-terminal, kept
T1 sequence (looked up): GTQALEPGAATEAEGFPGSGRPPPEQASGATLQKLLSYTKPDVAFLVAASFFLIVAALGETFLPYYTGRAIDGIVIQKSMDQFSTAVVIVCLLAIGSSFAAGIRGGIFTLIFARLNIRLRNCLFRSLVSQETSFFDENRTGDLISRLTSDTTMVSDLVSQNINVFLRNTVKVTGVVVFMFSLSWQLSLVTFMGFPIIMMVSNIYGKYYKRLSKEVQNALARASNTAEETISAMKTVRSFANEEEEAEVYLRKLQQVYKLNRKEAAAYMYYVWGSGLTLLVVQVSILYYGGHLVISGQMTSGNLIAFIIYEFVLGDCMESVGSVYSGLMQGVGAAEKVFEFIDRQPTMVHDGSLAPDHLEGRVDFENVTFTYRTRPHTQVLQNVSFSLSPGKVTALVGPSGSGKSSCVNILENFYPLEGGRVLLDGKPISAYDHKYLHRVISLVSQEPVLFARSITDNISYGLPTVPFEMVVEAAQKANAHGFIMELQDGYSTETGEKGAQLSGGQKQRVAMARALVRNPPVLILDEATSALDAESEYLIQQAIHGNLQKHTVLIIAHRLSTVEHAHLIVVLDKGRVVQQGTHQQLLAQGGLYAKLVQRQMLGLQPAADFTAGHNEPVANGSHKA
Put plainly: MST; competition: 100 nM 9-mer^Atto-655 peptide and 10 µM TAPL with unlabeled competitor peptide (18-mer titrated; 9-mer at 4 mM); 22 °C; Ki fitted considering competitor depletion. The following applies: both partners purified.

Test [2] addresses T1, coreTAPL (core complex of the …). Put plainly: cell-based or functional assay.
Test [3] has the same target. The test is described as follows: MST; 100 nM 9-mer^Atto-655 peptide with increasing TAPL concentrations; 20 mM HEPES, 140 mM NaCl, 0.05% DDM, 15% glycerol, pH 7.5; 22 °C; one-site binding model. The settings on record: both partners purified.
The target of test [4] is T2, coreTAPL (core complex of the transporter associated with antigen processing-like, ABCB9) fused C-terminally to mVenus (human) (UniProt Q9NP78).
T2 sequence: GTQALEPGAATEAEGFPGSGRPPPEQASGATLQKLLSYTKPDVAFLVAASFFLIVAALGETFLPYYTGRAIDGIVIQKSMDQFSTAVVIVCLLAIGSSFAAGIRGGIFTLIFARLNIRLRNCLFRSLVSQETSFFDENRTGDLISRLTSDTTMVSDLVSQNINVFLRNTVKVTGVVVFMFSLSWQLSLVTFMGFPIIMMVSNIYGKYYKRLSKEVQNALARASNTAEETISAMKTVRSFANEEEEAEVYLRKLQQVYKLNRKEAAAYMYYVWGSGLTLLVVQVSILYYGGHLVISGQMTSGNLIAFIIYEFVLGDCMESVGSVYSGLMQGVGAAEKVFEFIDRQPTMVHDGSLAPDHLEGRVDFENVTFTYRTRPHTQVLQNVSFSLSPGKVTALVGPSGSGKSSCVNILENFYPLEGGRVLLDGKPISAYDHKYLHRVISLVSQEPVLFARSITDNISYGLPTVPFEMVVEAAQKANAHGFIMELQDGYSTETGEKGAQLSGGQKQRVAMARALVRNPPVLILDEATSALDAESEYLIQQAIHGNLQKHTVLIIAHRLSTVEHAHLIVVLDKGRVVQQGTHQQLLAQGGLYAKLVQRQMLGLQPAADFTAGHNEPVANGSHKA

Test [5] deals with T2, coreTAPL (core complex of the transporter associated with antigen processing-like, ABCB9) fused C-terminally to mVenus (human). This is another data set of the same source.
The target is the same in test [6]. The source holds these as a separate data set.

For the molecule `Clc1ccccc1C(c1ccccc1)(c1ccccc1)n1ccnc1` [clotrimazole], the “effect on Pdr5 ATPase activity (in words)” value in the test on Pdr5 (ATP hydrolysis) is given as “inhibited”. Besides, the “effect on Pdr5 GTP and UTP hydrolysis (in words)” value in the test with Pdr5 (GTP and UTP hydrolysis) is on record as “not affected”.

B1: 18-mer peptide RRYQKSTELRRYQKSTEL (peptide)
peptide: RRYQKSTELRRYQKSTEL
notes: also called unlabeled 18-mer peptide; source: synthetic peptide (solid phase synthesis; Charité, Berlin)
In the case of B1, the inhibition constant Ki in test [1] is 11.8 ± 3.6 µM. Further, the “IC50 of inhibition of ATP hydrolysis of reconstituted TAPL by peptide (malachite green assay, 3 mM ATP, 37 °C)” value in test [2] was 15 µM.

B2: Atto-655 labeled 9-mer peptide RRYC^Atto-655KSTEL (peptide)
peptide: RRYC(Atto‑655 maleimide)KSTEL
notes: source: synthetic peptide (solid phase synthesis)
Molecule B2 gave a dissociation constant Kd in test [3] of 5.4 ± 0.8 µM.
In turn, RYC(5‑iodoacetamidofluorescein)K([Lys-Lys-Lys-Lys-Lys-Lys-Lys-Lys])STEL (also: octa-lysine attached by isopeptide bonds) [fluorescein labeled branched 16-mer peptide RYCK(K)8STEL] showed a K (m(Pep)) of peptide transport into TAPL proteoliposomes, 3 mM ATP, 15 min, 37 °C in test [4] of 8 µM.
The same measure, in the same setting: as for RRYQKSTELRRYC(5‑iodoacetamidofluorescein)KSTEL [fluorescein labeled 18-mer peptide …], the figure is 7 µM.
Regarding RRYC(5‑iodoacetamidofluorescein)KSTEL [fluorescein labeled 9-mer peptide RRYC^FluoresceinKSTEL], the K (m(pep)) of 9-mer transport into TAPL proteoliposomes in the presence of 3 mM GTP in test [5] came to 4.4 µM. For the same molecule, in test [6], the K (m(Pep)) of 9-mer^FL peptide transport into TAPL proteoliposomes at 24 °C, 3 mM ATP worked out at 10.8 µM; the K (m(Pep)) of 9-mer^FL peptide transport into TAPL proteoliposomes at 33 °C, 3 mM ATP was 15.3 µM; the K (m(Pep)) of 9-mer^FL peptide transport into TAPL proteoliposomes at 42 °C, 3 mM ATP was 17.3 µM. Besides, the K (m(Pep)) of peptide transport into TAPL proteoliposomes, 3 mM ATP, 15 min, 37 °C in test [4] is 15 µM.
In test [4], RYCK([Lys-Lys-Lys-Lys-Lys-Lys-Lys-Lys])STEL (also: octa-lysine attached by isopeptide bonds) [branched 16-mer peptide RYCK(K8)STEL] had an IC50 of inhibition of ATP hydrolysis of reconstituted TAPL by peptide (malachite green assay, 3 mM ATP, 37 °C) of 22 µM.
